Results: paper PMC8554075 (Immunity, 2021)

How the values were obtained:
[1] = biological target: T1, SARS-CoV-2 receptor-binding domain (SARS-CoV-2, UniProt P0DTC2); experiment: cell-based or functional assay
[2] = biological target: T1, SARS-CoV-2 receptor-binding domain
[3] = biological target: RaTG13 receptor-binding domain (Bat coronavirus RaTG13, UniProt A0ABF7PLN6)
[4] = biological target: SARS-CoV-1 receptor-binding domain (SARS-CoV (SARS-CoV-1), isolate not …, UniProt P59594)

Row | Binder | neutralization of live CoV2 virus, Vero E6 cells (blocks RBD-ACE2) [1] | binding result [2] | binding result [3] | binding result [4]
1 | AB-1987, expressed as human IgG1 (antibody, V domains shown) VH: QVQLVESGGGVVQPGRSLRLSCAASGFTFSSYGMHWVRQAPGKGLEWAAVIWYDGSNKYYADSVKGRFTISRDNSKNTLYLQMNSLRAEDTAVYYCARESSGGFDYWGQGTLVTVSS VL: NIQMTQSPSAMSASVGDRVTITCRARQGISNFLAWFQQKPGKVPKHLVYAASSLRSGVPSRFSGSGSGTEFTLTISSLQPEDFATYYCLQHNNYPYTFGQGTKLEIK | 0.054 µg/mL | – | – | –
2 | AB-2126, expressed as human IgG1 (antibody, V domains shown) VH: QVQLVESGGGVVQPGRSLRLSCAASGFTFSSYGIHWVRQAPGKGLEWVAVIWYDGSNKYYADSVKGRFTISRDNSKNTLYLQMNSLRAEDTAVYYCARETLDGMDVWGQGTTVTVSS VL: NIQMTQSPSAMSASVGDRVTITCRARQGISNYLAWFQQKPGKVPKHLIYAASSLLSGVPSRFSGSGSGTEFTLTIRSLQPEDFATYYCLQHNSYPYTFGQGTKLEIK | 0.106 µg/mL | – | – | –
3 | AB-3545 (antibody, V domains shown) VH: QVQLQESGPGLVKPSETLSLTCAVSGGSISNYHWNWIRQPPGKGLEWIGYIYYSGRTNYNPTLKSRVNISVDTSKNQFSLKLSSVTAADTAVYYCAREMRRGYSGYDDWDLYAFDIWGQGTMVTVSS VL: DIQLTQSPSFLSTYVGDRVTITCRASQGISTYLAWYQQKPGKAPKLLIYAAFTLQSGVPSRFSGSGSGTEFTLTISSLQPEDFATYYCQQLNSYPHTFGQGTKLEIK | – | binds | binds | binds
4 | 3636 (antibody, V domains shown) VH: QVQLQESGPGLVKPSETLSLTCTVSGGSISSYHWNWIRQPPGKGLEWIGYIYYSGSTNYNPSLKSRVSISVDTSKNQFSLKLSSVTAADTAVYYCAREMRRGYSGYDYWDLYAFDIWGQGTMVTVSS VL: DIQLTQSPSFLSASVRDRVTITCRASQGISSYLAWYQQKPGKAPKLLIYAASTLQSGVPSRFSGSGSGTEFTLTISSLQPEDFATYYCQQLNNYPHTFGQGTKLEIK | – | binds | binds | binds
5 | 3490 (antibody, V domains shown) VH: QVQLQESGPGLVKPSETLSLTCAVSGGSISSYYWSWIRQPPGKGLEWIGYIYYSGRTNYNPSLKSRVTISVDTSKNQFSLKLSSVTAADTAVYYCAREMRRGYSGYDDWDLYAFDIWGQGTMVTVSS VL: DIQLTQSPSFLSTSVGDRVTITCRASQGISSYLAWYQQKPGKAPKLLIYAASTLQSGVPSRFSGSGSGTEFTLTISSLQPEDFATYYCQQFNSYPHTFGQGTKLEI | – | binds | binds | binds
6 | 3517 (antibody, V domains shown) VH: QVQLQESGPGLVKPSETLSLTCTVSGGSISSYHWNWIRQPPGKGLEWIGYIYYSGSTNYNPSLKSRVSISVDTSKNQFSLKLSSVTAADTAVYYCAREMRRGYSGYDYWDLYAFDIWGQGTMVTVSS VL: DIQLTQSPSFLSASVRDRVTITCRASQDISSYLAWYQQKPGKAPKLLIYAASTLQSGVPSRFSGSGSGTEFTLTISSLQPEDFATYYCQQLNNYPHTFGQGTKLEIK | – | binds | binds | binds
7 | 3606 (antibody, V domains shown) VH: QVQLQESGPGLVKPSETLSLTCAVSGGSISSYYWSWIRQPPGKGLEWIGYIYYSGRTNYNSSLKSRVTISVDTSKNQFSLKLSSVTAADTAVYYCAREMRRGYSGYDDWDLYAFDIWGQGTMVTVSS VL: DIQLTQSPSFLSTSVGDRVTITCRASQGISSYLAWYQQKPGKAPKLLIYAASTLQSGVPSRFSGSGSGTDFTLTISSLQPEDFATYYCQQLNSYPHTFGQGTKLEIK | – | binds | binds | binds
8 | 3521 (antibody, V domains shown) VH: QVQLQESGPGLVKPSETLSLTCTVSGGSISSYHWSWIRQPPGKGLEWIGYIYYSGSTIYNPSLKSRVSISVDTSQNQFSLKLSSVTAADTAVYYCAREMPRGYSGYDYWDLYAFDIWGQGTMVTVSS VL: DIQLTQSPSFLSASVRDRVTITCRASQGISSYLAWYQQKPGKAPKLLIYAASTLQSGVPSRFSGSGSGTEFTLTISSLQPEDFATYYCQQLNNYPHTFGQGTKLEIK | – | binds | binds | binds
9 | 3475 (antibody, V domains shown) VH: QVQLQESGPGLVKPSETLSLTCTVSGDSISSYHWNWIRQPPGKGLEWIGYIYYSGSTNYNPSLKSRVTISVHTSKNQFSLRLSSVTAADTAVYYCAKEMRRGYSGYDYWDLYAFDIWGQGTMVTVSS VL: DIQLTQSPSFLSASVGDRVTVTCRASQGISSYLAWYQQKPGKAPKLLIYAASTLQSGVPSRFSGSGSGTEFTLTISSLQPEDFATYYCQQLNSYPHTFGQGTKLEIK | – | binds | binds | binds
10 | 3581 (antibody, V domains shown) VH: QVQLQESGPGLVKPSETLSLTCTVSGGSISTYYWSWTRQPPGKGLEWIGNIYYSGSTIYNPSLKSRVTISVDTSKNQFSLKLTSVTAADTAVYYCAREMRRGYSGYDYWDLYAFDIWGQGTMVTVSS VL: DIQLTPSPSFLSASVGDRVTITCRASQGISSYLAWYQQTPGKAPKLLIYAASTLQSGVPSRFSGSGSGTEFTLTISSLQPEDFATYYCQQLNSYPHTFGQGTKLEIK | – | binds | binds | binds
11 | 3573 (antibody, V domains shown) VH: QVLLQESGPGLVKPSETLSLTCAVSGGSISSYYWSWIRQPPGKGLEWIGYIYYSGRTNYNSSLKSRVTISVDTSKNQFSLKLSSVTAADTAVYYCAREMRRGYSGYDDWDLYAFDIWGQGTMVTVSS VL: DIQLTQSPSFLSTSVGDRVTITCRASQGISSYLAWYQQKPGKAPKLLIYAASTLQSGVPSRFSGSGSGTDFTLTISSLQPEDFATYYCQQLNSYPHTFGQGTKLEIK | – | binds | binds | binds
12 | 3476 (antibody, V domains shown) VH: QVQLQESGPGLVKPSETLSLTCAVSGGSISSYYWSWIRQPPGKGLEWIGYIYYSGRTNYNPSLKSRVTISVDTSKNQFSLKLSSVTAADTAVYYCAREMRRGYSGYDDWDLYAFDIWGQGTMVTVSS VL: DIQLTQSPSFLSTSIGDRVTITCRASQGISSYLAWYQQKPGKAPNLLIYAASTLQSGVPSRFSGSGSGTEFTLTISSLQPEDFATYYCQQLNSYPHTFGQGTKLEIK | – | binds | binds | binds
13 | 3645 (antibody, V domains shown) VH: QVQLQESGPGLVKPSETLSLTCAVSGGSISSYYWSWIRQPPGKGLEWIGYIYYSGRINYNPSLKSRVTISVDTSKNQFSLKLSSVTAADTAVYYCAREMRRGYSGYDDWDLYAFDIWGQGTMVTVSS VL: DIQLTQSPSFLSTSVGDRVTITCRASQGISSYLAWYQQKPGKAPKLLIYAASTLQSGVPSRFSGSGSGTEFTLTISSLQPEDFATYYCQQLNSYPHTFGQGTKLEIK | – | binds | binds | binds
14 | 3881 (antibody, V domains shown) VH: QVQLQGSGPGLVKPSETLSLTCTVSGGSISSYYWTWIRQPPGKGLEWIGYIYYSGITTYNPSLKSRITISVDTSKNQFSLKLRSVTAADTAVYYCAREMRRGYSGYDYWDLYPFDIWGQGTMVTVSS VL: DIQLTQSPSFLSASVGDRVTITCRASQGISSYLAWYQQKPGKAPKLLIYSASTLQSGVPSKFSGSGSGTEFTLTISSLQPEDFATYYCQQLNSYPHTFGQGTKLEIK | – | binds | binds | binds
15 | 3577 (antibody, V domains shown) VH: QVQLQESGPGLVKPSETLSLTCTVSGGSISSYHWNWIRQPPGKGLEWIGYIYYSGNTNYNPSLKSRVSISADTSKNQFSLKLSSVTAADTAVYYCAREMRRGYSGYDYWDLYAFDIWGQGTMVTVSS VL: DIQLTQSPSFLSASVGDRVTITCRASQGISSYLAWYQQKPGKAPKLLIYTASTLQSGVPSRFSGSGSGTEFTLTISSLQPEDFATYYCQQLNSYPHTFGQGTKLEIK | – | binds | binds | binds
16 | AB-3571 (antibody, V domains shown) VH: QVQLQESGPGLVKPSETLSLTCAVSGGSISSYHWNWIRQPPGKGLEWIGYIYYSGRTNYNPTLKSRVNISVDTSKNQFSLKLSSVTAADTAVYYCAREMRRGYSGYDYWDLYAFDIWGQGTMVTVSS VL: DIQLTQSPSFLSTSVGDRVTITCRASQDISTYLAWYQQKPGKAPKLLIYAASTLQSGVPSRFSGSGSGTEFTLTISSLQPEDFVTYYCQQLNSYPHTFGQGTKLEIK | – | binds | binds | binds
17 | AB-3492 (antibody, V domains shown) VH: QVQLQESGPGLVKPSETLSLTCAVSGGSISSYYWNWIRQPPGKGLEWIGYIYYSGRTNYNPSLKSRVTISVDTSKNQFSLKLSSVTAADTAVYYCAREMRRGYSGYDDWDLYAFDIWGQGTMVTVSS VL: DIQLTQSPSFLSTSVGDRVTITCRASQGISSYLAWYQQKPGKAPKLLIYAASTLQSGVPSRFSGSGSGTEFTLTISSLQPEDFATYYCQQLNSYPHTFGQGTKLEIK | – | binds | binds | binds
18 | 3513 (antibody, V domains shown) VH: QVQLQESGPGLVKPSETLSLTCTVTGGSINNYFWSWIRQPPGKGLEWIGNIYYSGNTIYNPSLKSRVTLSIDTSKNQFSLRLTSVTAADTAVYYCAREMRRGYSGYDYWDLYAFDVWGQGTMVTVSS VL: DIQLTQSPSFLSASVQDRVTITCRASQDISSYLAWYQQKPGKAPKLLIYAASTLQSGVPSRFSGSGSGTEFTLTISSLQPEDFATYYCQQLNSYPHTFGQGTKLEIK | – | binds | binds | binds
